This note sets out measurements from patent US20260184814A1, “BROADLY NE[…] INFLUENZA NEURAMINIDASE” (priority 2022, published 2026).

The target of assay [1] is human FcγRIIIa (F158 allele) (human) (UniProt P08637). The assay is described as follows: MSD [cont'd].
Assay [2] concerns the target human FcγRIIa (R131 allele) (human) (UniProt P12318). Put plainly: MSD [cont'd].
For assay [3], the target named is human FcγRIIIb (human) (UniProt O75015). The assay is described as follows: MSD [cont'd].
human FcγRIIIb (human), sequence (O75015 17-200 limits assumed): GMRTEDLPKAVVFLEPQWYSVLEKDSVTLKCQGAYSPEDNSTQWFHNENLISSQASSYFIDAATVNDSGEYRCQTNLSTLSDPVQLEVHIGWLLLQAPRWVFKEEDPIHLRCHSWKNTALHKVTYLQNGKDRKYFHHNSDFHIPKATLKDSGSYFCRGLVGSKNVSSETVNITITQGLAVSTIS
For assay [4], the target named is human FcγRIIa (H131 allele) (human) (UniProt P12318). The assay is described as follows: MSD [cont'd].
human FcγRIIa (H131 allele) (human), sequence (P12318 34-218 limits assumed): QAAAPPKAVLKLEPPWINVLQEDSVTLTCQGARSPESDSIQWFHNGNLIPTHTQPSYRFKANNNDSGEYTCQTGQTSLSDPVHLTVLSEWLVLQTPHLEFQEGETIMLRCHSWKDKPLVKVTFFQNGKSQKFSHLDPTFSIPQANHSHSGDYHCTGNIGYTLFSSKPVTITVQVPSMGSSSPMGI
The target in assay [5] is human FcγRIIIa (V158 allele) (human) (UniProt P08637). Put plainly: MSD [cont'd].
human FcγRIIIa (V158 allele) (human), sequence (P08637 17-208 F176V limits assumed): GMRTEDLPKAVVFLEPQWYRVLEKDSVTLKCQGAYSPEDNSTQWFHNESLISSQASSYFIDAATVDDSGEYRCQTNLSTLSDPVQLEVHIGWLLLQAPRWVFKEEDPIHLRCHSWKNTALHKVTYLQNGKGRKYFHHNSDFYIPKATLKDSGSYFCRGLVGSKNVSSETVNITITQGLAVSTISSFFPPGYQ
Assay [6] concerns the target human FcγRIIb (human) (UniProt P31994). The assay is described as follows: MSD [cont'd].
For assay [7], the target named is human FcRn (human) (UniProt P55899). Put plainly: MSD, pH 6 [cont'd].
human FcRn (human), sequence (P55899 24-297 limits assumed, chain 1 of 2): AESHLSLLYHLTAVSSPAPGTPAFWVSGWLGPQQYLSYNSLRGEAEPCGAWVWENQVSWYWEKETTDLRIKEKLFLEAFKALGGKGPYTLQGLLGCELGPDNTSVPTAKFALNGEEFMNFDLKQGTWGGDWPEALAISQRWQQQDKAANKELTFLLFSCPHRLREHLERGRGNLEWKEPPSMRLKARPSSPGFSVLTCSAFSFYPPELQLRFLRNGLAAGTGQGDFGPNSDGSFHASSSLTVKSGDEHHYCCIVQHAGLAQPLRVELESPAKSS
human FcRn (human), sequence (chain, as listed by the source limits assumed, chain 2 of 2): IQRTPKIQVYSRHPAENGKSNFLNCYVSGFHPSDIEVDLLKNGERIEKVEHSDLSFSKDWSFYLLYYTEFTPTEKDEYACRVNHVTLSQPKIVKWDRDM
For the next assay, the target named is human C1q (human) (UniProt P02745). The assay is described as follows: MSD [cont'd].
human C1q (human), sequence (P02745 23-245 limits assumed, chain 1 of 3): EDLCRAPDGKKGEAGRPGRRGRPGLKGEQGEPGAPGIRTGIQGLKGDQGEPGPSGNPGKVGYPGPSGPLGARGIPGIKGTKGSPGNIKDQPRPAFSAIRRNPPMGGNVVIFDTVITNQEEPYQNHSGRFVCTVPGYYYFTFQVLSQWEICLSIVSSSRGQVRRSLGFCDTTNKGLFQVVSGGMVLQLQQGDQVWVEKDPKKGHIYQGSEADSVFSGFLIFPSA
human C1q (human), sequence (P02746 28-253 limits assumed, chain 2 of 3, further chain): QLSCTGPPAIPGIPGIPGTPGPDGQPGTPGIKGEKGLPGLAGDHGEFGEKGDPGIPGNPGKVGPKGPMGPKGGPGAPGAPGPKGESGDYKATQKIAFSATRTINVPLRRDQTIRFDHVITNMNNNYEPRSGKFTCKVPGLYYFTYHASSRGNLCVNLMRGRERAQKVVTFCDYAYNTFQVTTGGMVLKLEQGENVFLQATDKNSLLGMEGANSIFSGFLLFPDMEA
human C1q (human), sequence (P02747 29-245 limits assumed, chain 3 of 3, further chain): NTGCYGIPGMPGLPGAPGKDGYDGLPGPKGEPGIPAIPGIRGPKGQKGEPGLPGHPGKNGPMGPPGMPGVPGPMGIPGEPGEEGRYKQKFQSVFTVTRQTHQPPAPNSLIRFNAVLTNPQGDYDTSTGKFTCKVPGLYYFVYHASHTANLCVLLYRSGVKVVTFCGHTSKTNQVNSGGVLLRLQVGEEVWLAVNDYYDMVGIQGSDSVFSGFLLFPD
Assay [8] concerns the target human FcγRIIa (R131 allele) (human) (UniProt P12318). The assay is described as follows: MSD.
Assay [9] addresses human FcγRIIa (H131 allele) (human) (UniProt P12318). The assay is described as follows: MSD.
In assay [10] the target is human FcγRIIb (human) (UniProt P31994). The assay is described as follows: MSD.
human FcγRIIb (human), sequence (P31994 43-217 limits assumed): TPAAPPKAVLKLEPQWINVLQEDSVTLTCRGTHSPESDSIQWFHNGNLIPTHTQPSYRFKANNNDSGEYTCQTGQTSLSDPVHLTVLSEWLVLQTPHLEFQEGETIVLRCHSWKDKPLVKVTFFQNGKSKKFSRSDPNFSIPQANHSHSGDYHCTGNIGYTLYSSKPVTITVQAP
The target in assay [11] is human FcRn (human) (UniProt P55899). Put plainly: MSD electrochemiluminescence binding assay; column FcRn.
The target in assay [12] is human FcγRIIb (human) (UniProt P31994). Put plainly: MSD electrochemiluminescence binding assay; column IIB.
Assay [13] has as its target human FcγRIIIb (human) (UniProt O75015). The assay is described as follows: MSD electrochemiluminescence binding assay; column IIIB.
For assay [14], the target named is human FcγRIIa (H131 allele) (human) (UniProt P12318). The assay is described as follows: MSD electrochemiluminescence binding assay; column IIA_H.
For assay [15], the target named is human FcγRIIIa (F158 allele) (human) (UniProt P08637). The assay is described as follows: MSD electrochemiluminescence binding assay; column IIIA_F.
In assay [16] the target is human FcγRIIa (R131 allele) (human) (UniProt P12318). Put plainly: MSD electrochemiluminescence binding assay; column IIA_R.
human FcγRIIa (R131 allele) (human), sequence (P12318 34-218 H167R limits assumed): as the sequence (P12318 34-218 limits assumed) above, with H134R counted along it
Assay [17] has as its target human FcγRIIIa (V158 allele) (human) (UniProt P08637). Put plainly: MSD electrochemiluminescence binding assay; column IIIA_V.
Assay [18] deals with human FcγRIIIa (F158 allele) (human) (UniProt P08637). Put plainly: MSD.
The target in assay [19] is human FcγRIIIb (human) (UniProt O75015). Put plainly: MSD.
Assay [20] concerns the target human FcγRIIIa (V158 allele) (human) (UniProt P08637). Put plainly: MSD.
Assay [21] concerns the target human FcRn (human) (UniProt P55899). The assay is described as follows: MSD [cont'd].
Assay [22] addresses human FcγRIIIa (V158 allele) (human) (UniProt P08637).

human FcγRIIIa (F158 allele) (human), sequence (P08637 17-208 limits assumed): as the sequence (P08637 17-208 F176V limits assumed) above, with V160F counted along it

Turning to A330L_I332E-afuc (antibody), the fold to wt-fucose amounted to 191 fold in assay [1]; 0.53 fold in assay [2]; 37.4 fold in the assay with human FcγRIIIb (human) [3]; 0.42 fold in assay [4]; 37.8 fold in [5]; 0.61 fold in the assay with human FcγRIIb (human) [6].

Consider A431G (antibody), for which the fold-change to WT Fc with human FcRn (human) [7] worked out at 0.916 fold; in [1] it was 1.23 fold; with human C1q (human), 0.824 fold; in assay [5] it was 1.61 fold; in [8] it was 1.38 fold; in assay [9], 1.76 fold. The fold-change to WT Fc with human FcγRIIb (human) [10] came to 1.5 fold.

C220P (antibody): the fold-change to WT Fc with human FcRn (human) [7] amounted to 0.991 fold; in [1], 0.99 fold; with human C1q (human), 0.761 fold; in assay [5], 1.33 fold; in [8], 1.04 fold; in assay [9] it was 1.17 fold. Besides, the fold-change to WT Fc in the assay with human FcγRIIb (human) [10] was found to be 1.21 fold.

As to G236A_A330L_I332E (antibody), the fold-change to WT Fc with human FcRn (human) [7] was 0.937 fold; in the assay with human C1q (human), -0.004 fold; in [9], 3.6 fold; with human FcγRIIb (human) [10], 0.605 fold.

Take G236A_E272Y_S298N (antibody): the fold-change in binding vs wild-type IgG1 with human FcRn (human) [11] stood at 0.98; with human FcγRIIb (human) [12], 0.19; with human FcγRIIIb (human) [13], 0.62; in assay [14], 0.63; in assay [15], 0.31; in assay [16], 0.38. The fold-change in binding vs wild-type IgG1 in [17] was found to be 0.06.

Regarding G236A_L328V_Q295E-afuc (antibody), the fold-change (reference not given) in assay [18] turned out to be 11.8 fold; in assay [8], 9.6 fold; with human FcγRIIIb (human) [19], 2.4 fold; in assay [9], 6.7 fold; in [20], 7.4 fold.

Take G236A_Q295E_S298N (antibody): the fold-change in binding vs wild-type IgG1 was determined as 0.93 in the assay with human FcRn (human) [11]; 0.23 in the assay with human FcγRIIb (human) [12]; 0.76 with human FcγRIIIb (human) [13]; 1.82 in assay [14]; 0.35 in [15]; 0.65 in assay [16]. The fold-change in binding vs wild-type IgG1 in assay [17] stood at 0.07.

Take G236A_R292P_A431G (antibody): the fold-change to WT Fc with human FcRn (human) [7] was 0.674 fold; in assay [1], 0.569 fold; with human C1q (human), 0.1 fold; in assay [5], 0.394 fold; in [8], 0.939 fold; in assay [9], 5.21 fold. Moreover, the fold-change to WT Fc with human FcγRIIb (human) [10] was found to be 0.511 fold.

G236A_R292P_G446E (antibody): the fold-change to WT Fc in the assay with human FcRn (human) [7] came to 0.851 fold; in assay [1], 0.552 fold; in the assay with human C1q (human), 0.099 fold; in assay [5] it was 0.415 fold; in [8] it was 0.986 fold; in assay [9] it was 4.54 fold. For the same substance, the fold-change to WT Fc with human FcγRIIb (human) [10] amounted to 0.512 fold.

With G236A_R292P_Y300L-afuc (antibody), the fold-change (reference not given) in [18] came out at 19.7 fold; in [8], 2.2 fold; with human FcγRIIIb (human) [19], 1.8 fold; in assay [9], 11.2 fold; in [20], 9.1 fold.

Turning to G236A_Y300L-afuc (antibody), the fold to wt-fucose in assay [1] is 30.1 fold; in assay [2], 3.95 fold; with human FcRn (human) [21] it was 0.92 fold; with human FcγRIIIb (human) [3], 2.55 fold; in assay [4], 14.9 fold; in assay [5], 13.7 fold. The fold to wt-fucose with human FcγRIIb (human) [6] was 0.93 fold. Also, in assay [22], the FcγR reporter signaling, fold to wt-fucose [cont'd] was 3.49 fold. Moreover, the fold-change (reference not given) in [18] came to 30.1 fold; in assay [8] it was 4 fold; in the assay with human FcγRIIIb (human) [19] it was 2.6 fold; in assay [9], 14.9 fold; in assay [20], 13.7 fold; with human FcγRIIb (human) [10], 0.9 fold.

Consider G236L (antibody), for which the fold-change to WT Fc worked out at 0.949 fold with human FcRn (human) [7]; 0.345 fold in assay [1]; 1.48 fold with human C1q (human); 0.083 fold in [5]; 1.42 fold in assay [8]; 0.435 fold in assay [9]. In addition, in the assay with human FcγRIIb (human) [10], the fold-change to WT Fc was 0.395 fold.

Turning to G236S-afuc (antibody), the fold to wt-fucose in assay [1] was found to be 10.6 fold; in assay [2], 4.39 fold; in the assay with human FcRn (human) [21], 0.85 fold; with human FcγRIIIb (human) [3], 1.37 fold; in [4] it was 7.37 fold; in [5], 4.63 fold. Further, the fold to wt-fucose with human FcγRIIb (human) [6] stood at 1.08 fold. In assay [22], this substance displayed a FcγR reporter signaling, fold to wt-fucose [cont'd] of 2.86 fold.

As for G446E (antibody), the fold-change to WT Fc with human FcRn (human) [7] amounted to 1.06 fold; in assay [1], 1.1 fold; with human C1q (human) it was 0.84 fold; in assay [5] it was 1.42 fold; in [8] it was 1.05 fold; in assay [9], 1.11 fold. Besides, the fold-change to WT Fc with human FcγRIIb (human) [10] worked out at 1.17 fold.

For K334A_Q295E_S298N (antibody), the fold-change in binding vs wild-type IgG1 in the assay with human FcRn (human) [11] stood at 0.91; in the assay with human FcγRIIb (human) [12] it was 0.47; with human FcγRIIIb (human) [13], 0.93; in assay [14], 0.22; in assay [15] it was 0.37; in [16] it was 0.28. In addition, the fold-change in binding vs wild-type IgG1 in assay [17] came to 0.09.

Turning to L234D_G236D_K326E (antibody), the fold-change in binding vs wild-type IgG1 with human FcRn (human) [11] is 0.83; in the assay with human FcγRIIb (human) [12] it was 0.28; with human FcγRIIIb (human) [13] it was 0.6; in assay [14] it was 0.14; in [15], 0.35; in assay [16], 0.3. Besides, the fold-change in binding vs wild-type IgG1 in assay [17] worked out at 0.05.

Take L234D_V264R_K326E (antibody): the fold-change in binding vs wild-type IgG1 with human FcRn (human) [11] amounted to 0.83; with human FcγRIIb (human) [12] it was 0.5; in the assay with human FcγRIIIb (human) [13], 0.6; in [14], 0.14; in assay [15], 0.27; in assay [16], 0.25. Further, in [17], the fold-change in binding vs wild-type IgG1 stood at 0.05.

On to L328V_Q295E_S298N (antibody), for which the fold-change in binding vs wild-type IgG1 came to 1.02 with human FcRn (human) [11]; 0.32 in the assay with human FcγRIIb (human) [12]; 0.79 with human FcγRIIIb (human) [13]; 0.26 in assay [14]; 0.28 in assay [15]; 0.33 in [16]. Besides, the fold-change in binding vs wild-type IgG1 in [17] stood at 0.08.

In the case of P245A_Q295E_S298N (antibody), the fold-change in binding vs wild-type IgG1 in the assay with human FcRn (human) [11] came out at 0.85; with human FcγRIIb (human) [12], 0.31; in the assay with human FcγRIIIb (human) [13] it was 0.89; in assay [14], 0.28; in assay [15], 0.34; in [16], 0.3. For the same substance, in assay [17], the fold-change in binding vs wild-type IgG1 was 0.1.

Regarding R292P (antibody), the fold-change to WT Fc in the assay with human FcRn (human) [7] was 0.898 fold; in [1], 0.79 fold; with human C1q (human), 0.549 fold; in assay [5], 0.917 fold; in [8], 0.454 fold; in assay [9] it was 0.577 fold. Also, in the assay with human FcγRIIb (human) [10], the fold-change to WT Fc came out at 0.541 fold. Further, the results for the fold-change vs wt (in [2]; in [4]; with human FcγRIIb (human) [6]) were 0.45 fold, 0.58 fold and 0.54 fold, respectively.

For R292P_G446E (antibody), the fold-change to WT Fc in the assay with human FcRn (human) [7] is 0.884 fold; in [1], 0.779 fold; with human C1q (human), 0.391 fold; in assay [5] it was 0.916 fold; in assay [8], 0.45 fold; in assay [9], 0.628 fold. Further, the fold-change to WT Fc with human FcγRIIb (human) [10] turned out to be 0.562 fold.
